Results: PMC6819594, “Screening antiproliferative drug for breast cancer from bisbenzylisoquinoline alkaloid tetrandrine and fangchinoline derivatives by targeting BLM helicase” (BMC Cancer, 2019)

Molecular target: BLM642-1290 helicase (UniProt P54132 642-1290)
Assay: fluorescence anisotropy; mitomycin C (no significant effect); 20 mM Tris pH 7.9, 25 mM NaCl, 3 mM MgCl2, 0.1 mM DTT; EMSA at room temperature 45 min; FP temperature not stated
Details: protein: recombinant; label: 3' fluorescein (FAM) on strand 2; 3' overhang 24 nt on strand 1; 21 bp duplex

Chain of BLM642-1290 helicase (P54132 642-1290): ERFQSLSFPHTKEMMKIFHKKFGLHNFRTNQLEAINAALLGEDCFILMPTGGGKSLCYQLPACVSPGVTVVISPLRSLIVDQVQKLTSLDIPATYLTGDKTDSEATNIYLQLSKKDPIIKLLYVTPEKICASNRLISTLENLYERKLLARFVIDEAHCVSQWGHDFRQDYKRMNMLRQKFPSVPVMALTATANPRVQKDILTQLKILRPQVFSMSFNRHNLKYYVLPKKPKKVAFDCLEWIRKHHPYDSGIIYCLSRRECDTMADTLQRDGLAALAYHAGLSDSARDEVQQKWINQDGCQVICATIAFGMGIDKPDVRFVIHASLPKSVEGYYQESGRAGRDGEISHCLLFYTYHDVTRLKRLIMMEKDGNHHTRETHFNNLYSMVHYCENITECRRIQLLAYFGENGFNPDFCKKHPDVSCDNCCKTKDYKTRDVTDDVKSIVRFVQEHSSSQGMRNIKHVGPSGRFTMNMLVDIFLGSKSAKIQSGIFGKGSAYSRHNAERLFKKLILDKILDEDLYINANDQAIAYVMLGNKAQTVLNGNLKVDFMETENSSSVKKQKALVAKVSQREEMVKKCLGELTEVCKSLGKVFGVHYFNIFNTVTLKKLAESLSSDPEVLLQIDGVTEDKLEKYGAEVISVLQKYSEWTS

B1: dsDNA A1A2 (dsDNA)
DNA 1: AATCCGTCGAGCAGAGTTAGGTTAGGTTAGGTTAGTTTTTTTTTT
DNA 2: CCTAACTCTGCTCGACGGATT
- binding result: binds
